Values of other authors, collected in paper PMC7616283.

Molecular target: CCR8 (Homo sapiens) (UniProt P51685)
Sequence (P51685 whole entry): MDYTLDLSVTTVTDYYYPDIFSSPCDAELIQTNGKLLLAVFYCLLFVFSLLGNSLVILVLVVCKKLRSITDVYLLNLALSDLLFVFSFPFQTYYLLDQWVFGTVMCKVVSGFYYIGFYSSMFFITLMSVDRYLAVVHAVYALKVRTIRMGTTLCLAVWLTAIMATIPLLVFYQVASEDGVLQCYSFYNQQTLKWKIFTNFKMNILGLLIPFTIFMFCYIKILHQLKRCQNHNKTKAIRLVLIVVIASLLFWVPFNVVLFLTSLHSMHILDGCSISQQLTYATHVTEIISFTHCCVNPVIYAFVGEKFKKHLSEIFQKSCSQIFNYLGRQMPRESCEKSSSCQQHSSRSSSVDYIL

Chain of CCL18 (P55774 24-89): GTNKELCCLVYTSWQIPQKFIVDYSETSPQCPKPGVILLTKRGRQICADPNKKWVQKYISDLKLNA

Substance: CCL18 (from UniProt P55774)
- Kd: 1.9 nM
